Positions count from the first letter of the chain named. Names and notes keep the numbering of the source.
B1: PR007276 (bispecific antibody, human IgG1, kappa)
heavy: QVQLVESGGGVVQPGMSLRLSCAASGFDFSSYGMYWVRQAPGKGQEWVASIRYTGTEKHYADSVKGRFTISRDNSKNTLYLEMNSLRVEDTAVYYCAKNRALFGVIPDDSDIRGQGTMVTVSSGGGGSQVQLVQSGAEVKKPGASVKVSCKASGYTFAGYYMYWVRQAPGQGLEWMGWINPDSGAPTYAQKFQGRVTMTRDTSISTAYMELSRLRSDDTAVYYCAREKIYYGSGNYYPSFDYWGQGTLVTVSSASTKGPSVFPLAPSSKSTSGGTAALGCLVKDYFPEPVTVSWNSGALTSGVHTFPAVLQSSGLYSLSSVVTVPSSSLGTQTYICNVNHKPSNTKVDKKVEPKSCDKTHTCPPCPAPEAAGAPSVFLFPPKPKDTLMISRTPEVTCVVVDVSHEDPEVKFNWYVDGVEVHNAKTKPREEQYNSTYRVVSVLTVLHQDWLNGKEYKCKVSNKALPAPIEKTISKAKGQPREPQVYTLPPSREEMTKNQVSLTCLVKGFYPSDIAVEWESNGQPENNYKTTPPVLDSDGSFFLYSKLTVDKSRWQQGNVFSCSVMHEALHNHYTQKSLSLSPGK
light: DIQLTQSPSFLSASVGDRVTITCRASQGISSYLAWYQQKPGKAPKLLIYAASTLQSGVPSRFSGSGSGTEFTLTISSLQPEDFATYYCQQLASYPWTFGQGTKVEIKRTVAAPSVFIFPPSDEQLKSGTASVVCLLNNFYPREAKVQWKVDNALQSGNSQESVTEQDSKDSTYSLSSTLTLSKADYEKHKVYACEVTHQGLSSPVTKSFNRGEC
notes: VH of PR006248 (PD-L1) - GS_5 - heavy chain of CD40 IgG PR006495; human IgG1 L234A/L235A/G237A; also called PD-L1×CD40
B2: PR007617 (bispecific antibody, human IgG1, kappa)
heavy: QVQLVESGGGVVQPGMSLRLSCAASGFDFSSYGMYWVRQAPGKGQEWVASIRYTGTEKHYADSVKGRFTISRDNSKNTLYLEMNSLRVEDTAVYYCAKNRAIFGVIPDDSDIRGQGTMVTVSSGGSQVQLVQSGAEVKKPGASVKVSCKASGYTFAGYYMYWVRQAPGQGLEWMGWINPDSGAPTYAQKFQGRVTMTRDTSISTAYMELSRLRSDDTAVYYCAREKIYYGSGNYYPSFDYWGQGTLVTVSSASTKGPSVFPLAPSSKSTSGGTAALGCLVKDYFPEPVTVSWNSGALTSGVHTFPAVLQSSGLYSLSSVVTVPSSSLGTQTYICNVNHKPSNTKVDKKVEPKSCDKTHTCPPCPAPEAAGAPSVFLFPPKPKDTLMISRTPEVTCVVVDVSHEDPEVKFNWYVDGVEVHNAKTKPREEQYNSTYRVVSVLTVLHQDWLNGKEYKCKVSNKALPAPIEKTISKAKGQPREPQVYTLPPSREEMTKNQVSLTCLVKGFYPSDIAVEWESNGQPENNYKTTPPVLDSDGSFFLYSKLTVDKSRWQQGNVFSCSVMHEALHNHYTQKSLSLSPGK
light: B1 light
notes: VH of PR006246 (PD-L1) - GS_3 - heavy chain of CD40 IgG PR006495; human IgG1 L234A/L235A/G237A; also called PD-L1×CD40
B3: PR007620 (bispecific antibody, human IgG1, kappa)
heavy: B2 heavy with I102L
light: B1 light with A92V
notes: VH of PR006248 (PD-L1) - GS_3 - heavy chain of CD40 IgG PR006504; human IgG1 L234A/L235A/G237A; also called PD-L1×CD40
B4: PR007616 (bispecific antibody, human IgG1, kappa)
heavy: B1 heavy
light: B1 light with A92Y
notes: VH of PR006248 (PD-L1) - GS_5 - heavy chain of CD40 IgG PR006497; human IgG1 L234A/L235A/G237A; also called PD-L1×CD40
B5: PR007282 (bispecific antibody, human IgG1, kappa)
heavy: B1 heavy with D109A
light: B1 light with A92V
notes: VH of PR006247 (PD-L1) - GS_5 - heavy chain of CD40 IgG PR006504; human IgG1 L234A/L235A/G237A; also called PD-L1×CD40
B6: PR007280 (bispecific antibody, human IgG1, kappa)
heavy: B1 heavy with L102I, I106V, D109A
light: B1 light with A92V
notes: VH of PR006245 (PD-L1) - GS_5 - heavy chain of CD40 IgG PR006504; human IgG1 L234A/L235A/G237A; also called PD-L1×CD40
B7: PR007556 (bispecific antibody, human IgG1, kappa)
heavy: B1 heavy
light: B1 light with A92F
notes: VH of PR006248 (PD-L1) - GS_5 - heavy chain of CD40 IgG PR006496; human IgG1 L234A/L235A/G237A; also called PD-L1×CD40
B8: PR007281 (bispecific antibody, human IgG1, kappa)
heavy: B1 heavy with L102I
light: B1 light with A92V
notes: VH of PR006246 (PD-L1) - GS_5 - heavy chain of CD40 IgG PR006504; human IgG1 L234A/L235A/G237A; also called PD-L1×CD40
B9: PR007618 (bispecific antibody, human IgG1, kappa)
heavy: B2 heavy with I102L
light: B1 light
notes: VH of PR006248 (PD-L1) - GS_3 - heavy chain of CD40 IgG PR006495; human IgG1 L234A/L235A/G237A; also called PD-L1×CD40

target: T1, human CD40 (human, UniProt P25942 21-277); experiment: FACS, CHO-K1/hCD40 cells
T1 construct: whole, on cells; also called hCD40; TNFRSF5
T1 sequence (P25942 21-277): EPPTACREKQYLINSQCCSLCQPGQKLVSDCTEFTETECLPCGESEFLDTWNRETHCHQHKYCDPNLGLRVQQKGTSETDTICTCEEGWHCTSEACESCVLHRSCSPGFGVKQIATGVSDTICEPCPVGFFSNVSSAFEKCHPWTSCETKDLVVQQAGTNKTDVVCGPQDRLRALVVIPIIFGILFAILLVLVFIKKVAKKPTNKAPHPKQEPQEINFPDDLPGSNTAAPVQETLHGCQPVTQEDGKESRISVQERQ
Experimental: (§1) The cells were incubated at 4° C. for 1 hours in the dark. After the incubation, the cells were rinsed twice by adding pre-chilled PBS at 100 μL/well, and centrifuged at 500 g at 4° C. for 5 minutes, and the supernatant was discarded. Then, a fluorescent secondary antibody (goat anti-human IgG (H+L) secondary antibody, Alexa Fluor® 488 conjugate, Invitrogen, #A11013, 1:1000 dilution) was added at 100 μL/well, and the cells were incubated at 4° C. for 30 minutes in the dark. The cells were washed twice with pre-chilled PBS at 200 μL/well, and centrifuged at 500 g at 4° C. for 5 minutes, and the supernatant was discarded. Finally, the cells were resuspended in pre-chilled PBS at 200 μL/well. The fluorescence signal values were read using a BD FACS CANTOII flow cytometer or ACEA NovoCyte flow cytometer, and the data were processed and analyzed using FlowJo v10 software (FlowJo, LLC).

Row | Binder | EC50 | Maximum MFI
1 | B1 | 2.35 nM | 14300 MFI
2 | B2 | 1.96 nM | 16800 MFI
3 | B3 | 2.2 nM | 15300 MFI
4 | B4 | 1.99 nM | 19200 MFI
5 | B5 | 1.88 nM | 13500 MFI
6 | B6 | 3.83 nM | 15000 MFI
7 | B7 | 1.69 nM | 14600 MFI
8 | B8 | 2.13 nM | 14200 MFI
9 | B9 | 2.22 nM | 16800 MFI

target: T2, cynomolgus monkey PD-L1 (cynomolgus monkey); experiment: FACS, CHO-K1/cyPD-L1 cells
T2 construct: whole, on cells; also called cyPD-L1
Experimental: (§2) Specifically, the cells expressing PD-L1 were digested and resuspended in PBS buffer containing 2% BSA. The cells were adjusted to a cell density of 1×10⁶ cells/mL, respectively. The cells were seeded in a 96-well V-bottom plate (Corning, #3894) at 100 μL/well, and the antibody to be tested at 2×final concentration with 4-fold concentration gradient dilution was then added at 100 μL/well. The cells were incubated at 4° C. for 2 hours in the dark. After the incubation, the cells were rinsed twice by adding pre-chilled PBS containing 2% BSA at 100 μL/well, and centrifuged at 500 g at 4° C. for 5 minutes, and the supernatant was discarded. […] The cells were washed twice by adding pre-chilled PBS containing 2% BSA at 100 µL/well, and centrifuged at 500 g at 4° C. for 5 minutes, and the supernatant was discarded. Finally, the cells were resuspended in pre-chilled PBS buffer containing 2% BSA at 200 μL/well. The fluorescence signal values were read using a BD FACS CANTOII flow cytometer or ACEA NovoCyte flow cytometer, and the data were processed and analyzed using FlowJo v10 software (FlowJo, LLC).

Row | Binder | EC50 | Maximum MFI
10 | B1 | 0.656 nM | 4570 MFI
11 | B2 | 0.635 nM | 4830 MFI
12 | B3 | 0.757 nM | 4840 MFI
13 | B4 | 0.687 nM | 4750 MFI
14 | B5 | 0.834 nM | 4620 MFI
15 | B6 | 1.02 nM | 4830 MFI
16 | B7 | 0.683 nM | 4720 MFI
17 | B8 | 0.632 nM | 4610 MFI
18 | B9 | 0.69 nM | 4870 MFI

target: T1, human CD40; experiment: FACS, Raji cells
Experimental: as §1

Row | Binder | EC50 | Maximum MFI
19 | B1 | 1.45 nM | 7570 MFI
20 | B2 | 1.27 nM | 6850 MFI
21 | B3 | 1.32 nM | 6710 MFI
22 | B4 | 1.24 nM | 6680 MFI
23 | B5 | 1.45 nM | 7520 MFI
24 | B6 | 1.65 nM | 7700 MFI
25 | B7 | 1.28 nM | 6560 MFI
26 | B8 | 1.46 nM | 7600 MFI
27 | B9 | 1.23 nM | 6700 MFI

target: T3, human PD-L1 (human, UniProt Q9NZQ7 19-290); experiment: cell-based or functional assay
T3 sequence (Q9NZQ7 19-290): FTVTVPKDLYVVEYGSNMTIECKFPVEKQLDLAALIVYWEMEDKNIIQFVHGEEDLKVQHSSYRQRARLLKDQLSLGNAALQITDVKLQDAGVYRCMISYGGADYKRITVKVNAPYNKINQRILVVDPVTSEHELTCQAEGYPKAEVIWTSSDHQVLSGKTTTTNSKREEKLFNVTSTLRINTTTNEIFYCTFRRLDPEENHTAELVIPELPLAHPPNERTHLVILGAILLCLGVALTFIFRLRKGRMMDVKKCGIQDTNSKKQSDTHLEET

Row | Binder | EC50, Jurkat-NFAT-hPD1 reporter | Maximum (RLU), Jurkat-NFAT-hPD1 reporter
28 | B1 | 0.273 nM | 4060 RLU
29 | B2 | 0.157 nM | 2190 RLU
30 | B3 | 0.319 nM | 3740 RLU
31 | B4 | 0.204 nM | 2590 RLU
32 | B5 | 0.188 nM | 2480 RLU
33 | B6 | 0.295 nM | 2560 RLU
34 | B7 | 0.225 nM | 4080 RLU
35 | B8 | 0.19 nM | 3840 RLU
36 | B9 | 0.12 nM | 2470 RLU

target: T3, human PD-L1; experiment: FACS, NCI-H226 cells
Experimental: as §2

Row | Binder | EC50 | Maximum MFI
37 | B1 | 0.569 nM | 927 MFI
38 | B2 | 0.337 nM | 831 MFI
39 | B3 | 0.281 nM | 1030 MFI
40 | B4 | 0.303 nM | 800 MFI
41 | B5 | 0.61 nM | 983 MFI
42 | B6 | 1.02 nM | 1020 MFI
43 | B7 | 0.452 nM | 861 MFI
44 | B8 | 0.503 nM | 921 MFI
45 | B9 | 0.322 nM | 902 MFI

target: T1, human CD40; experiment: cell-based or functional assay

Row | Binder | EC50, HEK293-hCD40-NFκB reporter, + CHO-K1 | EC50, HEK293-hCD40-NFκB reporter, + CHO-K1/hPD-L1 | Maximum (RLU), HEK293-hCD40-NFκB reporter, + CHO-K1 | Maximum (RLU), HEK293-hCD40-NFκB reporter, + CHO-K1/hPD-L1
46 | B1 | 0.22 nM | 0.08 nM | 239000 RLU | 379000 RLU

target: T3, human PD-L1; experiment: FACS, CHO-K1/hPD-L1 cells
Experimental: as §2

Row | Binder | EC50 | Maximum MFI
47 | B1 | 1.18 nM | 19700 MFI
48 | B2 | 1.01 nM | 20200 MFI
49 | B3 | 1.15 nM | 20300 MFI
50 | B4 | 1.07 nM | 20300 MFI
51 | B5 | 1.46 nM | 20400 MFI
52 | B6 | 1.58 nM | 20200 MFI
53 | B7 | 1.03 nM | 20100 MFI
54 | B8 | 1.13 nM | 19900 MFI
55 | B9 | 1.04 nM | 20100 MFI

target: T4, cynomolgus monkey CD40 (cynomolgus monkey); experiment: FACS, CHO-K1/cyCD40 cells
T4 construct: whole, on cells; also called cyCD40
Experimental: as §1

Row | Binder | EC50 | Maximum MFI
56 | B1 | 2.62 nM | 57000 MFI
57 | B2 | 2.45 nM | 58700 MFI
58 | B3 | 2.48 nM | 68000 MFI
59 | B4 | 2.22 nM | 64700 MFI
60 | B5 | 2.43 nM | 50100 MFI
61 | B6 | 2.65 nM | 50100 MFI
62 | B7 | 2.58 nM | 55500 MFI
63 | B8 | 3.63 nM | 65000 MFI
64 | B9 | 3.07 nM | 67900 MFI
